Substrate: O=c1ccn([C@H]2C[C@H](O)[C@@H](COP(=O)(O)O)O2)c(=O)[nH]1
Test: purified protein
Assay type: biochemical, Escherichia coli
Conditions: 25 °C, CH2H4folate fixed at 50 μM, TCEP

B1: ecTSase (Escherichia coli thymidylate synthase) (Escherichia coli K-12; H147V) (protein)
chain: MKQYLELMQKVLDEGTQKNDRTGTGTLSIFGHQMRFNLQDGFPLVTTKRCHLRSIIHELLWFLQGDTNIAYLHENNVTIWDEWADENGDLGPVYGKQWRAWPTPDGRHIDQITTVLNQLKNDPDSRRIIVSAWNVGELDKMALAPCVAFFQFYVADGKLSCQLYQRSCDVFLGLPFNIASYALLVHMMAQQCDLEVGDFVWTGGDTHLYSNHMDQTHLQLSREPRPLPKLIIKRKPESIFDYRFEDFEIEGYDPHPGIKAPVAI
Km: 4.0 ± 1.3 µM | kcat: 0.61 ± 0.04 s⁻¹

Reference: article PMC5172458
